Assay results published in the supplement of paper PMC10567573.

B1: TRIM63 (parent)
chain: QEKKLSFIEALIQQYQEQLDKSTK
B2: HESX1 (parent)
chain: SKYENYFSASERLSLKRELSWYRG

Variants of: B1
Assay: protein stability index of a GFP-peptide fusion (GPS, HEK-293T) (PSI 1-6); higher = more stable
Settings: c terminus: a fixed tail appended
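Further: lentivirally expressed fusions sorted by FACS into six bins by GFP to DsRed ratio, PSI derived from sequencing read proportions per bin multiplied by bin number.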

First: QEKKLSFIEALIQQYQEQLWKSTK [D20W]
Second: QEKKLSFIEALIQQYQEQLHKSTK [D20H]
The protein stability index of the first is higher: 1.83 for the first, 1.77 for the second.

Compared with QEKKLSFIEALIQQYQEQLNKSTK [D20N], QEKKLSFIEALIQQYQEQLDKSTL [K24L] is higher in protein stability index: 2.08 for the first, 2.47 for the second.

Going from QEKKLSFIEALIQQYQEQLDKSTC [K24C] to QEKKLSFIEALIQQYQEQLDKSTD [K24D], the protein stability index rises from 2.99 to 3.66.

First: QEKKLSFIEALIQQYQEQLDLSTK [K21L]
Second: QEKKLSFIEALIQQYQEQLDHSTK [K21H]
The protein stability index of the first is lower: 2.17 for the first, 2.23 for the second.

Going from QEKKLSFIEALIQQYYEQLDKSTK [Q16Y] to QEKYLSFIEALIQQYQEQLDKSTK [K4Y], the protein stability index rises from 2.32 to 2.53.

Compared with QEKKLSFIEALIQQYQEQLDKCTK [S22C], QEKKLSFIEALIQQYQEQLDKFTK [S22F] is higher in protein stability index: 2.26 for the first, 3.09 for the second.

Going from QEKKVSFIEALIQQYQEQLDKSTK [L5V] to QEKKLSFIVALIQQYQEQLDKSTK [E9V], the protein stability index falls from 2.57 to 1.7.

Going from QEKKLSFIYALIQQYQEQLDKSTK [E9Y] to QEKKLSTIEALIQQYQEQLDKSTK [F7T], the protein stability index rises from 1.57 to 3.98.

Going from QEKKLSHIEALIQQYQEQLDKSTK [F7H] to QEKKLSQIEALIQQYQEQLDKSTK [F7Q], the protein stability index falls from 4.2 to 4.05.

Compared with QEKKLSFIEASIQQYQEQLDKSTK [L11S], QEKKLSFIEAYIQQYQEQLDKSTK [L11Y] is lower in protein stability index: 5.13 for the first, 3.31 for the second.

Compared with QEKKLGFIEALIQQYQEQLDKSTK [S6G], QEKKLSFGEALIQQYQEQLDKSTK [I8G] is higher in protein stability index: 2.8 for the first, 5.05 for the second.

First: QEKKLSFYEALIQQYQEQLDKSTK [I8Y]
Second: QEKKLSFIEALIQQYQEQLDKSMK [T23M]
The protein stability index of the first is higher: 3.63 for the first, 1.92 for the second.

Going from MEKKLSFIEALIQQYQEQLDKSTK [Q1M] to PEKKLSFIEALIQQYQEQLDKSTK [Q1P], the protein stability index rises from 1.99 to 2.39.

First: NEKKLSFIEALIQQYQEQLDKSTK [Q1N]
Second: QEKKLSFIEALIQAYQEQLDKSTK [Q14A]
The protein stability index of the first is higher: 2.49 for the first, 2.43 for the second.

Compared with QEKKLSFIEALIQQYQEKLDKSTK [Q18K], QEKKLSFIEALIQQYQEGLDKSTK [Q18G] is lower in protein stability index: 2.58 for the first, 1.95 for the second.

Going from QEKKLSFIEALIQQYQETLDKSTK [Q18T] to QEKKLSFIEALIQQYQENLDKSTK [Q18N], the protein stability index rises from 2.93 to 3.28.

Going from QEKKLSFIEALFQQYQEQLDKSTK [I12F] to QEKKLSFIEALIQQYQNQLDKSTK [E17N], the protein stability index falls from 3.18 to 1.81.

Variant QRKKLSFIEALIQQYQEQLDKSTK [E2R] has a protein stability index of 2.93.

Variants of: B2
Assay: as above
Settings: c terminus: a fixed tail appended

Going from SKYENYFSASERLSLKRERSWYRG [L19R] to SKYENYFSASERLSLKREKSWYRG [L19K], the protein stability index falls from 2.18 to 1.81.

First: SKYENYFSASERLSLKREASWYRG [L19A]
Second: SKYENYFSASERLSLKRESSWYRG [L19S]
The protein stability index of the first is lower: 2.62 for the first, 3.25 for the second.

Going from SKYENYFSASERLSLKRECSWYRG [L19C] to SKYENYFSASERLSLKREPSWYRG [L19P], the protein stability index falls from 2.01 to 2.

First: SKYENYFSASERLSLKREGSWYRG [L19G]
Second: SKYENYFSASERLSLKREFSWYRG [L19F]
The protein stability index of the first is lower: 1.87 for the first, 2.68 for the second.

First: SKYENYFSASERLSLKREVSWYRG [L19V]
Second: SKYENYFSASERLSLKREHSWYRG [L19H]
The protein stability index of the first is lower: 1.79 for the first, 2.66 for the second.

Compared with SKYENYFSASERLSLKREMSWYRG [L19M], SKYENYFSASERLSLKREESWYRG [L19E] is higher in protein stability index: 1.95 for the first, 2.08 for the second.

First: SKYENYFSASERLSLKRETSWYRG [L19T]
Second: SKYENYFSASERLSLKREWSWYRG [L19W]
The protein stability index of the first is higher: 2.31 for the first, 1.41 for the second.

Going from SKYENYFSASERLSLKREISWYRG [L19I] to SKYENYFSASERLSLKRELSWSRG [Y22S], the protein stability index falls from 2.52 to 2.22.

Compared with SKYENYFSASERLSLKRELSWDRG [Y22D], SKYENYFSASERLSLKRELSWKRG [Y22K] is lower in protein stability index: 3.06 for the first, 2.46 for the second.

Going from SKYENYFSASERLSLKRELSWHRG [Y22H] to SKYENYFSASERLSLKRELSWWRG [Y22W], the protein stability index falls from 2.56 to 2.4.

Compared with SKYENYFSASERLSLKRELSWQRG [Y22Q], SKYENYFSASERLSLKRELSWRRG [Y22R] is higher in protein stability index: 1.7 for the first, 1.9 for the second.

Compared with SKYENYFSASERLSLKRELSWCRG [Y22C], SKYENYFSASERLSLKRELSWARG [Y22A] is lower in protein stability index: 2.27 for the first, 1.82 for the second.

First: SKYENYFSASERLSLKRELSWTRG [Y22T]
Second: SKYENYFSASERLSLKRELSWPRG [Y22P]
The protein stability index of the first is lower: 1.9 for the first, 2.29 for the second.

First: SKYENYFSASERLSNKRELSWYRG [L15N]
Second: SKYENYFSASERLSRKRELSWYRG [L15R]
The protein stability index of the first is higher: 2.33 for the first, 2.24 for the second.

First: SKYENYFSASERLSDKRELSWYRG [L15D]
Second: SKYENYFSASERLSTKRELSWYRG [L15T]
The protein stability index of the first is higher: 2.65 for the first, 1.17 for the second.

SKYENYFSASERLSQKRELSWYRG [L15Q] and SKYENYFSASERLSWKRELSWYRG [L15W] are the same in protein stability index: 2.95 for the first, 2.95 for the second.

Going from SKYENYFSASERLSYKRELSWYRG [L15Y] to SKYENYFSASERLSFKRELSWYRG [L15F], the protein stability index falls from 2.13 to 1.61.

Compared with SKYENYFSASERLSMKRELSWYRG [L15M], SKYENYFSASERLSKKRELSWYRG [L15K] is higher in protein stability index: 1.72 for the first, 2.47 for the second.

Compared with SKYENYFSASERLSHKRELSWYRG [L15H], SKYENYFSASERLSPKRELSWYRG [L15P] is higher in protein stability index: 2.07 for the first, 2.57 for the second.

Going from SKYENYFSASERLSIKRELSWYRG [L15I] to SKYENYFSASERLSAKRELSWYRG [L15A], the protein stability index rises from 1.86 to 2.72.

First: SKYENYFSASERLSCKRELSWYRG [L15C]
Second: SKYENYFSASERLSEKRELSWYRG [L15E]
The protein stability index of the first is lower: 1.94 for the first, 2.22 for the second.

First: SKYENYFSASERLSVKRELSWYRG [L15V]
Second: SKYENYFSASERLSSKRELSWYRG [L15S]
The protein stability index of the first is lower: 2.06 for the first, 2.41 for the second.

Compared with SKYENYFSASERLSLKRELIWYRG [S20I], SKYENYFSASERLSLKRELKWYRG [S20K] is lower in protein stability index: 2.8 for the first, 1.58 for the second.

Compared with SKYENYFSASERLSLKRELTWYRG [S20T], SKYENYFSASERLSLKRELQWYRG [S20Q] is lower in protein stability index: 3.72 for the first, 1.94 for the second.

Going from SKYENYFSASERLSLKRELPWYRG [S20P] to SKYENYFSASERLSLKRELWWYRG [S20W], the protein stability index rises from 1.31 to 2.91.

First: SKYENYFSASERLSLKRELLWYRG [S20L]
Second: SKYENYFSASERLSLKRELFWYRG [S20F]
The protein stability index of the first is higher: 2.8 for the first, 1.66 for the second.

Going from SKYENYFSASERLSLKRELYWYRG [S20Y] to SKYENYFSASERLSLKRELVWYRG [S20V], the protein stability index falls from 2.75 to 1.24.

First: SKYENYFSASERLSLKRELRWYRG [S20R]
Second: SKYENYFSASERLSLKRELMWYRG [S20M]
The protein stability index of the first is higher: 2.14 for the first, 1.14 for the second.

Going from SKYENYFSASERLSLKWELSWYRG [R17W] to SKYENYFSASERLSLKAELSWYRG [R17A], the protein stability index rises from 1.21 to 2.04.

SKYENYFSASERLSLKLELSWYRG [R17L] gave a protein stability index of 1.38.
